Test results from IntAct's records for PubMed 19732766.

B1: U3 small nucleolar RNA-associated protein 4 homolog (Homo sapiens), Q969X6 (parent)
chain: MGEFKVHRVRFFNYVPSGIRCVAYNNQSNRLAVSRTDGTVEIYNLSANYFQEKFFPGHESRATEALCWAEGQRLFSAGLNGEIMEYDLQALNIKYAMDAFGGPIWSMAASPSGSQLLVGCEDGSVKLFQITPDKIQFERNFDRQKSRILSLSWHPSGTHIAAGSIDYISVFDVKSGSAVHKMIVDRQYMGVSKRKCIVWGVAFLSDGTIISVDSAGKVQFWDSATGTLVKSHLIANADVQSIAVADQEDSFVVGTAEGTVFHFQLVPVTSNSSEKQWVRTKPFQHHTHDVRTVAHSPTALISGGTDTHLVFRPLMEKVEVKNYDAALRKITFPHRCLISCSKKRQLLLFQFAHHLELWRLGSTVATGKNGDTLPLSKNADHLLHLKTKGPENIICSCISPCGSWIAYSTVSRFFLYRLNYEHDNISLKRVSKMPAFLRSALQILFSEDSTKLFVASNQGALHIVQLSGGSFKHLHAFQPQSGTVEAMCLLAVSPDGNWLAASGTSAGVHVYNVKQLKLHCTVPAYNFPVTAMAIAPNTNNLVIAHSDQQVFEYSIPDKQYTDWSRTVQKQGFHHLWLQRDTPITHISFHPKRPMHILLHDAYMFCIIDKSLPLPNDKTLLYNPFPPTNESDVIRRRTAHAFKISKIYKPLLFMDLLDERTLVAVERPLDDIIAQLPPPIKKKKFGT

Variants of: B1
Conditions: with zep1_human HIVEP1, P15822

| Variant | effect of a mutation on the interaction |
| --- | --- |
| R565W | decreasing interaction |
